According to patent US20140179604A1 (U S A REPRESENTED BY THE DEPARTMENT OF VETERANS AFFAIRS, published 2014):
Non-standard residues stand in square brackets, D forms with d. No end group written: not given here. *: point of attachment. Desaminotyrosyl = O=C(CCc1ccc(O)cc1)*; NMeY = CN[C@@H](Cc1ccc(O)cc1)C(=O)O; Agmatine = N=C(N)NCCCCN*; Nle = CCCC[C@H](N)C(=O)O; Orn = NCCC[C@H](N)C(=O)O; dAbu = CC[C@@H](N)C(=O)O; Abu = CC[C@H](N)C(=O)O; Aoc = NCCCCCCCC(=O)O; GABA = NCCCC(=O)O

What was measured:
[1] = target: T1, GHRH receptor (membrane receptors of human anterior pituitary cells) (human) (UniProt Q02643); assay: competition with 125I-JV-1-42, human pituitary membranes
T1 sequence (looked up): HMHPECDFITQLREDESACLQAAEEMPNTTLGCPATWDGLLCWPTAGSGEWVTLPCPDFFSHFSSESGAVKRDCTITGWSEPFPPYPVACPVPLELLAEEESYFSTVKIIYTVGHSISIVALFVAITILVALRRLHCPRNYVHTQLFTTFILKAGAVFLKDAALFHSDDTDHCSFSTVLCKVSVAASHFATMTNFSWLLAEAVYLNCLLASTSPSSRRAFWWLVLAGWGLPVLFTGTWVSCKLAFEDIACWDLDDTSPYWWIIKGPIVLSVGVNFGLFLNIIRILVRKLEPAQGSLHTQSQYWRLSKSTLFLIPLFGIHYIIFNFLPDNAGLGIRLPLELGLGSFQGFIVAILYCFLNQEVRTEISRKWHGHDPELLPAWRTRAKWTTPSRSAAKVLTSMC

[2] = target: T2, GHRH receptor (membrane receptors of human anterior pituitary cells) (human, UniProt Q02643 23-423); assay: as above
T2 construct: whole, on cells; Native receptor in a membrane fraction of purchased normal human pituitaries, not intact cells; also called hGHRH receptor; human pituitary membrane homogenates
T2 sequence (looked up): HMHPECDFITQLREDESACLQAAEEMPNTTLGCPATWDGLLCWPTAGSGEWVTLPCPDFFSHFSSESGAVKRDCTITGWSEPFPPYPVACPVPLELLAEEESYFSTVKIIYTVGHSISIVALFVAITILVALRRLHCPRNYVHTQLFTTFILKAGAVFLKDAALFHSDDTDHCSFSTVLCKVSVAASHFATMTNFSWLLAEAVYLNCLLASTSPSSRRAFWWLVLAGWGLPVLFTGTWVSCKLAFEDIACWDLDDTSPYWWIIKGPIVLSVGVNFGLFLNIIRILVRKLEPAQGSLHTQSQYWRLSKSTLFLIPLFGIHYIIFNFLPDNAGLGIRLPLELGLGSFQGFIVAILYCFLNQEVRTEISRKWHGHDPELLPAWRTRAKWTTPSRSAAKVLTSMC
From the text: Normal human pituitaries were purchased from the National Hormone and Peptide Program (A. F. Parlow, Los Angeles, County Harbor-UCLA Medical Center, Torrance, Calif.).

[3] = target: T2, GHRH receptor (membrane receptors of …); assay: competition with 125I-[His1,Nle27]hGHRH(1-32)NH2, human pituitary membranes

B1: P-25503 [N-Me-Tyr^1, Abu^2, Orn^12, Abu^15, Orn^21, Nle^27, Gab^30]hGHRH(1-30)NH2 (peptide, from a related filing)
peptide: YADAIFTNSYRKVLGQLSARKLLQDIMSRQ
modifications: N-Me-Tyr^1; Abu^2; Orn^12; Abu^15; Orn^21; Nle^27; Gab^30 (in place of Gln^30); C-terminal -NH2
For B1, the IC50 [1] was 1.18 nM and the Relative affinity (Binding potency) vs JI-38 [1] was 3.67 JI-38 = 1.

B2: P-25504 [Dat^1, D-Abu^2, Orn^12, Abu^15, Orn^21, Nle^27, Gab^30]hGHRH(1-30)NH2 (peptide)
peptide: [Desaminotyrosyl][dAbu]DAIFTNSYR[Orn]VL[Abu]QLSAR[Orn]LLQDI[Nle]SR[GABA]-NH2
SMILES: CCCC[C@H](NC(=O)[C@@H](NC(=O)[C@H](CC(=O)O)NC(=O)[C@H](CCC(N)=O)NC(=O)[C@H](CC(C)C)NC(=O)[C@H](CC(C)C)NC(=O)[C@H](CCCN)NC(=O)[C@H](CCCNC(=N)N)NC(=O)[C@H](C)NC(=O)[C@H](CO)NC(=O)[C@H](CC(C)C)NC(=O)[C@H](CCC(N)=O)NC(=O)[C@H](CC)NC(=O)[C@H](CC(C)C)NC(=O)[C@@H](NC(=O)[C@H](CCCN)NC(=O)[C@H](CCCNC(=N)N)NC(=O)[C@H](Cc1ccc(O)cc1)NC(=O)[C@H](CO)NC(=O)[C@H](CC(N)=O)NC(=O)[C@@H](NC(=O)[C@H](Cc1ccccc1)NC(=O)[C@@H](NC(=O)[C@H](C)NC(=O)[C@H](CC(=O)O)NC(=O)[C@@H](CC)NC(=O)CCc1ccc(O)cc1)[C@@H](C)CC)[C@@H](C)O)C(C)C)[C@@H](C)CC)C(=O)N[C@@H](CO)C(=O)N[C@@H](CCCNC(=N)N)C(=O)NCCCC(N)=O
notes: also called MR-504; Peptide 25504
With B2 the IC50 [2] was 1.44 nM, the “Relative affinity (Binding potency) vs JI-38” value (“Relative affinity … vs JI-38” for short) [2] was 3.02 JI-38 = 1 and the IC50 [3] was 2.85 nM. The “Relative affinity (Binding potency) compared to JI-38” value (“Relative affinity … to JI-38” below) [3] was 0.96 JI-38 = 1 and the “Relative affinity (Binding potency) compared to hGHRH(1-29)” value (“Relative affinity … to hGHRH(1-29)” below) [3] was 2.68 hGHRH(1-29)NH2 = 1.

B3: P-21301 [N-Me-Tyr^1, Orn^12, Abu^15, Orn^21, Nle^27, Asp^28, Amc^30]hGHRH(1-30)NH2 (peptide, from a related filing)
peptide: [NMeY]ADAIFTNSYR[Orn]VL[Abu]QLSAR[Orn]LLQDI[Nle]DR[Aoc]-NH2
modifications: N-terminus assumed
SMILES: CCCC[C@H](NC(=O)[C@@H](NC(=O)[C@H](CC(=O)O)NC(=O)[C@H](CCC(N)=O)NC(=O)[C@H](CC(C)C)NC(=O)[C@H](CC(C)C)NC(=O)[C@H](CCCN)NC(=O)[C@H](CCCNC(=N)N)NC(=O)[C@H](C)NC(=O)[C@H](CO)NC(=O)[C@H](CC(C)C)NC(=O)[C@H](CCC(N)=O)NC(=O)[C@H](CC)NC(=O)[C@H](CC(C)C)NC(=O)[C@@H](NC(=O)[C@H](CCCN)NC(=O)[C@H](CCCNC(=N)N)NC(=O)[C@H](Cc1ccc(O)cc1)NC(=O)[C@H](CO)NC(=O)[C@H](CC(N)=O)NC(=O)[C@@H](NC(=O)[C@H](Cc1ccccc1)NC(=O)[C@@H](NC(=O)[C@H](C)NC(=O)[C@H](CC(=O)O)NC(=O)[C@H](C)NC(=O)[C@H](Cc1ccc(O)cc1)NC)[C@@H](C)CC)[C@@H](C)O)C(C)C)[C@@H](C)CC)C(=O)N[C@@H](CC(=O)O)C(=O)N[C@@H](CCCNC(=N)N)C(=O)NCCCCCCCC(N)=O
B3 was tested, and the IC50 [1] was 2.99 nM and the Relative affinity (Binding potency) vs JI-38 [1] was 1.45 JI-38 = 1.

With [NMeY][dA]DAIFTQSYR[Orn]VL[Abu]QLSAR[Orn]LLQDI[Nle]D[Agmatine] (also called Peptide 20361) [P-20361 [N-Me-Tyr^1, D-Ala^2, Gln^8, Orn^12, Abu^15, Orn^21, Nle^27, Asp^28, Agm^29]hGHRH(1-29)NH2] the IC50 [2] was 0.82 nM, the “Relative affinity … vs JI-38” value [2] was 5.3 JI-38 = 1 and the IC50 [3] was 1.19 nM. The “Relative affinity … to JI-38” value [3] was 2.3 JI-38 = 1 and the “Relative affinity … to hGHRH(1-29)” value [3] was 6.42 hGHRH(1-29)NH2 = 1.

In the case of [NMeY][dA]DAIFTQSYR[Orn]VL[Abu]QLSAR[Orn]LLQDI[Nle]DR-NHEt (also called MR-420; Peptide 28420) [P-28420 [N-Me-Tyr^1, D-Ala^2, Gln^8, Orn^12, Abu^15, Orn^21, Nle^27, Asp^28]hGHRH(1-29)NH-CH2-CH3], the IC50 [2] is reported as 0.52 nM, the “Relative affinity … vs JI-38” value [2] is reported as 8.37 JI-38 = 1 and the IC50 [3] is reported as 2.7 nM. The “Relative affinity … to JI-38” value [3] was 1.01 JI-38 = 1 and the “Relative affinity … to hGHRH(1-29)” value [3] was 2.83 hGHRH(1-29)NH2 = 1.

B4: P-27408 [Dat^1, D-Ala^2, Gln^8, Orn^12, Abu^15, Orn^21, Nle^27, Asp^28]hGHRH(1-29)NH-CH3 (peptide)
peptide: [Desaminotyrosyl][dA]DAIFTQSYR[Orn]VL[Abu]QLSAR[Orn]LLQDI[Nle]DR-NHMe
SMILES: CCCC[C@H](NC(=O)[C@@H](NC(=O)[C@H](CC(=O)O)NC(=O)[C@H](CCC(N)=O)NC(=O)[C@H](CC(C)C)NC(=O)[C@H](CC(C)C)NC(=O)[C@H](CCCN)NC(=O)[C@H](CCCNC(=N)N)NC(=O)[C@H](C)NC(=O)[C@H](CO)NC(=O)[C@H](CC(C)C)NC(=O)[C@H](CCC(N)=O)NC(=O)[C@H](CC)NC(=O)[C@H](CC(C)C)NC(=O)[C@@H](NC(=O)[C@H](CCCN)NC(=O)[C@H](CCCNC(=N)N)NC(=O)[C@H](Cc1ccc(O)cc1)NC(=O)[C@H](CO)NC(=O)[C@H](CCC(N)=O)NC(=O)[C@@H](NC(=O)[C@H](Cc1ccccc1)NC(=O)[C@@H](NC(=O)[C@H](C)NC(=O)[C@H](CC(=O)O)NC(=O)[C@@H](C)NC(=O)CCc1ccc(O)cc1)[C@@H](C)CC)[C@@H](C)O)C(C)C)[C@@H](C)CC)C(=O)N[C@@H](CC(=O)O)C(=O)N[C@@H](CCCNC(=N)N)C(=O)NC
notes: also called MR-408; MR408
For B4, the IC50 [2] was 0.55 nM, the “Relative affinity … vs JI-38” value [2] was 7.91 JI-38 = 1 and the IC50 [3] was 6.32 nM. The “Relative affinity … to JI-38” value [3] was 0.53 JI-38 = 1 and the “Relative affinity … to hGHRH(1-29)” value [3] was 1.21 hGHRH(1-29)NH2 = 1.
